Reference: patent US20240034813A1 (Janssen / Centocor, published 2024)

How the values were obtained:
[1] = molecular target: T1, recombinant cMet/HGFR with c-terminal His-tag, Cy5-labeled (UniProt P08581 25-932, limits assumed, Cy5 label (reacted with Cy5 Mono NHS Ester; sites not stated)); assay: competitive TR-FRET (Eu-amivantamab/Cy5-c-MET), EC50 ratio vs Reference Material; Ex. 2 Formulation 2 (50 mM histidine), 3 months at 25 C
T1 construct: Commercial protein; also called Cy5-c-MET; Cy5-labeled c-MET antigen; not shown: C-terminal His-tag
Excerpt: (§1) In this procedure, varying concentrations of unlabeled bispecific EGFR-cMet antibody sample compete with donor fluorophore (Europium (Eu) chelate) labeled bispecific EGFR-cMet antibody for binding to an acceptor fluorophore (Cy5)-labeled c-MET antigen. Excitation of the donor fluorophore results in a transfer of energy to the bound acceptor fluorophore (FRET process). The resultant FRET is detected by emission of light at 665 nm using a microplate reader capable of measuring time-resolved fluorescence. Sample dose response curves are compared to the Reference Material (RM).
(§2) c-MET Binding Materials and Methods. Certified commercial cMet, a recombinant cMet/HGFR with c-terminal His-tag is reacted with certified commercial Cy5 Mono NHS Ester to produce Cy5-labeled c-MET. Validated bispecific EGFR-cMet antibody is reacted with certified commercial Europium (Eu) chelate to produce Eu labeled bispecific EGFR-cMet antibody. […] Fluorescence is then measured by spectrophotometry at 665 nm, plotted against antibody concentration and analyzed by a four-parameter logistic model. The antibody concentration required to obtain half of the maximum fluorescence response (EC50) is determined for RM, assay control and samples. The potencies of assay control and samples are calculated based on the ratio of the sample (or control) and RM EC50 values and reported as a percentage activity relative to the RM.

[2] = molecular target: T1, recombinant cMet/HGFR with c-terminal …; assay: competitive TR-FRET (Eu-amivantamab/Cy5-c-MET), EC50 ratio vs Reference Material; Ex. 2 Formulation 1 (10 mM histidine), 1 month at 40 C
Excerpt: as §1, §2

[3] = molecular target: T2, recombinant human EGFR/ErbB1/HER1 with C-terminal His tag, Cy5-labeled (human, UniProt P00533 25-645, Cy5 label (reacted with Cy5 Mono NHS Ester; sites not stated)); assay: competitive TR-FRET (Eu-amivantamab/Cy5-EGFR), EC50 ratio vs Reference Material; Ex. 11 drug product, 6 months at 25 C
T2 construct: Commercial protein; also called Cy5-EGFR; Cy5-labeled EGFR antigen; not shown: C-terminal His tag
Excerpt: (§3) In this procedure, varying concentrations of unlabeled bispecific EGFR-cMet antibody sample compete with donor fluorophore (Europium (Eu) chelate) labeled bispecific EGFR-cMet antibody for binding to an acceptor fluorophore (Cy5)-labeled EGFR antigen. Excitation of the donor fluorophore results in a transfer of energy to the bound acceptor fluorophore (FRET process). The resultant FRET is detected by emission of light at 665 nm using a microplate reader capable of measuring time-resolved fluorescence. Sample dose response curves are compared to the RM.
as §2, with “EGFR” for “c-MET”, “EGFR,” for “cMet,”, “human EGFR/ErbB1/HER1” for “cMet/HGFR”, “C-terminal His tag” for “c-terminal His-tag”, “EGFR.” for “c-MET.”, “Eu-labeled” for “Eu labeled”

[4] = molecular target: T2, recombinant human EGFR/ErbB1/HER1 with …; assay: competitive TR-FRET (Eu-amivantamab/Cy5-EGFR), EC50 ratio vs Reference Material; Ex. 12 drug product with rHuPH20, 12 months at 5 C
Excerpt: as §3
as §2, with “EGFR” for “c-MET”, “EGFR,” for “cMet,”, “human EGFR/ErbB1/HER1” for “cMet/HGFR”, “C-terminal His tag” for “c-terminal His-tag”, “EGFR.” for “c-MET.”, “Eu-labeled” for “Eu labeled”

[5] = molecular target: T2, recombinant human EGFR/ErbB1/HER1 with …; assay: competitive TR-FRET (Eu-amivantamab/Cy5-EGFR), EC50 ratio vs Reference Material; Ex. 11 drug product, 3 months at 40 C
Excerpt: as §3
as §2, with “EGFR” for “c-MET”, “EGFR,” for “cMet,”, “human EGFR/ErbB1/HER1” for “cMet/HGFR”, “C-terminal His tag” for “c-terminal His-tag”, “EGFR.” for “c-MET.”, “Eu-labeled” for “Eu labeled”

[6] = molecular target: T1, recombinant cMet/HGFR with c-terminal …; assay: competitive TR-FRET (Eu-amivantamab/Cy5-c-MET), EC50 ratio vs Reference Material; Ex. 2 Formulation 2 (50 mM histidine), T0, 40 C table
Excerpt: as §1, §2

[7] = molecular target: T1, recombinant cMet/HGFR with c-terminal …; assay: competitive TR-FRET (Eu-amivantamab/Cy5-c-MET), EC50 ratio vs Reference Material; Ex. 3 acetate formulation, 6 months at 25 C, untreated control
Excerpt: as §1, §2

[8] = molecular target: T1, recombinant cMet/HGFR with c-terminal …; assay: competitive TR-FRET (Eu-amivantamab/Cy5-c-MET), EC50 ratio vs Reference Material; Ex. 12 drug product with rHuPH20, 1 month at 40 C
Excerpt: as §1, §2

B1: amivantamab (bispecific antibody, human IgG1, kappa)
heavy 1: not shown
light 1: not shown
heavy 2: not shown
light 2: DIQMTQSPSSVSASVGDRVTITCRASQGISNWLAWFQHKPGKAPKLLIYAASSLLSGVPSRFSGSGSGTDFTLTISSLQPEDFATYYCQQANSFPITFGQGTRLEIKRTVAAPSVFIFPPSDEQLKSGTASVVCLLNNFYPREAKVQWKVDNALQSGNSQESVTEQDSKDSTYSLSSTLTLSKADYEKHKVYACEVTHQGLSSPVTKSFNRGEC
notes: The samples tested were high concentration (160 mg/mL) formulations, fresh or stored or stressed; also called JNJ-61186372; bispecific EGFR-cMet antibody
cMET Binding % activity relative to RM [1]: 89%
cMET Binding % activity relative to RM [2]: 96%
EGFR Binding activity relative to Reference Material (%) [3]: 57%
EGFR Binding activity relative to Reference Material (%) [4]: 94%
EGFR Binding activity relative to Reference Material (%) [5]: 8%
cMET Binding % activity relative to RM [6]: 102%
cMET Binding % activity relative to RM [7]: 99%
cMET Binding activity relative to Reference Material (%) [8]: 81%
